Assay results reported in publication PMC4749184, “Viral Replication Protein Inhibits Cellular Cofilin Actin Depolymerization Factor to Regulate the Actin Network and Promote Viral Replicase Assembly” (PLoS Pathogens, 2016).

T1: FLAG-tagged p33 replication protein (Tomato bushy stunt virus, UniProt P15962 1-296)
T1 construct: p33 replication protein of Tomato bushy stunt virus (tombusvirus); also called FLAG-p33; source: yeast (BY4741, cof1 ts and act1 ts strains), CUP1 promoter, in detergent-solubilized membrane fraction
T1 sequence: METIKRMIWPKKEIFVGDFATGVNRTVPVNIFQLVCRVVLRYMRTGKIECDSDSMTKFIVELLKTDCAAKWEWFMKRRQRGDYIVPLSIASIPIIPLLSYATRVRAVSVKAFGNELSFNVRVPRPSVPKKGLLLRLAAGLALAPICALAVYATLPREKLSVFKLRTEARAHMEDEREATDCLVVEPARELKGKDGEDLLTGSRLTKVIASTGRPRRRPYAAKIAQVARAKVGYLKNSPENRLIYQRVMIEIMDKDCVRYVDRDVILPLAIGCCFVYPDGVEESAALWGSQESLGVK


Target: T1, FLAG-tagged p33 replication protein
Assay: co-IP; FLAG-affinity column purification of FLAG-p33 (co-expressed with FLAG-p92) from detergent-solubilized membrane fraction of yeast after cross-linking with 1% formaldehyde for 1 h on ice; co-purified His6-tagged host proteins detected by Western blot with anti-His antibody; yeast expressing His6-p33 as control; WT (BY4741), cof1-8 ts, cof1-22 ts, act1-121 ts, act1-132 ts, act1-105 ts and act1-112 ts yeasts at …
Details: partners not purified

Binder	co-purified with p33 from act1-132 yeast, percent of co-purification from WT yeast
Rpn11 deubiquitinase (enzyme, yeast (S. cerevisiae), UniProt P43588 1-306, looked up, Rpn11 deubiquitinase, cellular host factor in yeast; source: yeast (act1-132 ts and WT), co-purified with p33) MERLQRLMMNSKVGSADTGRDDTKETVYISSIALLKMLKHGRAGVPMEVMGLMLGEFVDDYTVNVVDVFAMPQSGTGVSVEAVDDVFQAKMMDMLKQTGRDQMVVGWYHSHPGFGCWLSSVDVNTQKSFEQLNSRAVAVVVDPIQSVKGKVVIDAFRLIDTGALINNLEPRQTTSNTGLLNKANIQALIHGLNRHYYSLNIDYHKTAKETKMLMNLHKEQWQSGLKMYDYEEKEESNLAATKSMVKIAEQYSKRIEEEKELTEEELKTRYVGRQDPKKHLSETADETLENNIVSVLTAGVNSVAIK	161%
Tdh2 GAPDH (Tdh2p) (enzyme, yeast (S. cerevisiae), UniProt P00358 1-332, looked up, Tdh2p, glyceraldehyde-3-phosphate dehydrogenase, cellular host factor in yeast; source: yeast (act1-132 ts and WT), co-purified with p33) MVRVAINGFGRIGRLVMRIALQRKNVEVVALNDPFISNDYSAYMFKYDSTHGRYAGEVSHDDKHIIVDGHKIATFQERDPANLPWASLNIDIAIDSTGVFKELDTAQKHIDAGAKKVVITAPSSTAPMFVMGVNEEKYTSDLKIVSNASCTTNCLAPLAKVINDAFGIEEGLMTTVHSMTATQKTVDGPSHKDWRGGRTASGNIIPSSTGAAKAVGKVLPELQGKLTGMAFRVPTVDVSVVDLTVKLNKETTYDEIKKVVKAAAEGKLKGVLGYTEDAVVSSDFLGDSNSSIFDAAAGIQLSPKFVKLVSWYDNEYGYSTRVVDLVEHVAKA	111%
Tef1 eEF1A (Tef1p) (natural protein, yeast (S. cerevisiae), UniProt P02994 1-458, looked up, Tef1p, eukaryotic elongation factor 1A, cellular host factor in yeast; source: yeast (act1-132 ts and WT), co-purified with p33) MGKEKSHINVVVIGHVDSGKSTTTGHLIYKCGGIDKRTIEKFEKEAAELGKGSFKYAWVLDKLKAERERGITIDIALWKFETPKYQVTVIDAPGHRDFIKNMITGTSQADCAILIIAGGVGEFEAGISKDGQTREHALLAFTLGVRQLIVAVNKMDSVKWDESRFQEIVKETSNFIKKVGYNPKTVPFVPISGWNGDNMIEATTNAPWYKGWEKETKAGVVKGKTLLEAIDAIEQPSRPTDKPLRLPLQDVYKIGGIGTVPVGRVETGVIKPGMVVTFAPAGVTTEVKSVEMHHEQLEQGVPGDNVGFNVKNVSVKEIRRGNVCGDAKNDPPKGCASFNATVIVLNHPGQISAGYSPVLDCHTAHIACRFDELLEKNDRRSGKKLEDHPKFLKSGDAALVKFVPSKPMCVEAFSEYPPLGRFAVRDMRQTVAVGVIKSVDKTEKAAKVTKAAQKAAKK	96%
6xHis-Vap27-1 (VAP protein, Scs2-like plant ortholog) (natural protein, UniProt Q8VZ95 1-256, looked up, Vap27-1, VAMP-associated protein, a plant ortholog of yeast Scs2p; also called Vap27-1 (Scs2-like); ER-localized Vap27-1; source: expressed in yeast, in detergent-solubilized membrane fraction) MSNIDLIGMSNRDLIGMSNSELLTVEPLDLQFPFELKKQISCSLYLTNKTDNNVAFKVKTTNPKKYCVRPNTGVVLPRSTCEVLVTMQAQKEAPSDMQCKDKFLLQGVIASPGVTAKEVTPEMFSKEAGHRVEETKLRVTYVAPPRPPSPVHEGSEEGSSPRASVSDNGHGSEFSFERFIVDNKAGHQENTSEARALITKLTEEKQSAIQLNNRLQRELDQLRRESKKSQSGGIPFMYVLLVGLIGLILGYIMKRT	218%
Vps4 AAA ATPase (Vps4p) (enzyme, yeast (S. cerevisiae), UniProt P52917 1-437, looked up, Vps4p AAA ATPase, cellular host factor in yeast; source: yeast (act1-132 ts and WT), co-purified with p33) MSTGDFLTKGIELVQKAIDLDTATQYEEAYTAYYNGLDYLMLALKYEKNPKSKDLIRAKFTEYLNRAEQLKKHLESEEANAAKKSPSAGSGSNGGNKKISQEEGEDNGGEDNKKLRGALSSAILSEKPNVKWEDVAGLEGAKEALKEAVILPVKFPHLFKGNRKPTSGILLYGPPGTGKSYLAKAVATEANSTFFSVSSSDLVSKWMGESEKLVKQLFAMARENKPSIIFIDEVDALTGTRGEGESEASRRIKTELLVQMNGVGNDSQGVLVLGATNIPWQLDSAIRRRFERRIYIPLPDLAARTTMFEINVGDTPCVLTKEDYRTLGAMTEGYSGSDIAVVVKDALMQPIRKIQSATHFKDVSTEDDETRKLTPCSPGDDGAIEMSWTDIEADELKEPDLTIKDFLKAIKSTRPTVNEDDLLKQEQFTRDFGQEGN	53%
Vps23 ESCRT I (Vps23p ESCRT factor) (natural protein, yeast (S. cerevisiae), UniProt P25604 1-385, looked up, Vps23p, ESCRT-I factor, cellular host factor in yeast; source: yeast (act1-132 ts and WT), co-purified with p33) MSANGKISVPEAVVNWLFKVIQPIYNDGRTTFHDSLALLDNFHSLRPRTRVFTHSDGTPQLLLSIYGTISTGEDGSSPHSIPVIMWVPSMYPVKPPFISINLENFDMNTISSSLPIQEYIDSNGWIALPILHCWDPAAMNLIMVVQELMSLLHEPPQDQAPSLPPKPNTQLQQEQNTPPLPPKPKSPHLKPPLPPPPPPQPASNALDLMDMDNTDISPTNHHEMLQNLQTVVNELYREDVDYVADKILTRQTVMQESIARFHEIIAIDKNHLRAVEQAIEQTMHSLNAQIDVLTANRAKVQQFSSTSHVDDEDVNSIAVAKTDGLNQLYNLVAQDYALTDTIECLSRMLHRGTIPLDTFVKQGRELARQQFLVRWHIQRITSPLS	108%
Cdc34 E2 enzyme (ubiquitin-conjugating enzyme) (enzyme, yeast (S. cerevisiae), UniProt P14682 1-295, looked up, Cdc34 ubiquitin-conjugating enzyme, cellular host factor in yeast; source: yeast (act1-132 ts and WT), co-purified with p33) MSSRKSTASSLLLRQYRELTDPKKAIPSFHIELEDDSNIFTWNIGVMVLNEDSIYHGGFFKAQMRFPEDFPFSPPQFRFTPAIYHPNVYRDGRLCISILHQSGDPMTDEPDAETWSPVQTVESVLISIVSLLEDPNINSPANVDAAVDYRKNPEQYKQRVKMEVERSKQDIPKGFIMPTSESAYISQSKLDEPESNKDMADNFWYDSDLDDDENGSVILQDDDYDDGNNHIPFEDDDVYNYNDNDDDDERIEFEDDDDDDDDSIDNDSVMDRKQPHKAEDESEDVEDVERVSKKI	207%
His6-tagged Osh6 protein (yeast Osh6p ORP) (natural protein, yeast (S. cerevisiae), UniProt Q02201 1-448, looked up, also called Osh6 ORP; 6xHis-Osh6p; source: yeast, GAL1 promoter (UpYC-NT-Gal1-OSH6), in detergent-solubilized membrane fraction) MGSKKLTVGSDSHRLSKSSFSSNKSSHSATKDQPIDTDDIDEDDESGHNIILNIISQLRPGCDLTRITLPTFILEKKSMLERVTNQLQFPEFLLQAHSEKDPLKRFLYVMKWYLAGWHIAPKAVKKPLNPVLGEYFTAYWDLPNKQQAYYISEQTSHHPPECAYFYMIPESSIRVDGVVIPKSRFLGNSSAAMMDGSTVLQFLDIKDGNGKPEKYVLTQPNVYVRGILFGKMRIELGDHMIIKSPNFQADIEFKTKGYVFGTYDAIEGTVKDYDGNAYYEISGKWNDVMYLKDLKQPRSSPKVFLDTHKESPLRPKVRPLSEQGEYESRKLWKKVTDALAVRNHPVATEEKFQIEDHQRQLAKKRIEDGVEFHPKLFRRSKPGEDLDYCIYKNIPVDEDPEKQIRSILQIAPILPGQQFTDKFFIPAFEKIKSQKKMIENEKQNPAKQ	258%
Pbp2 RNA binding protein (natural protein, yeast (S. cerevisiae), UniProt P38151 1-413, looked up, source: yeast (act1-132 ts and WT), co-purified with p33) MSTETTKPSITTTPTTVLVSPNTLKRKKGEDTSEEQLEAEIKRVALKDADSHSDNDHDSPDNVPSDVHLRMLCLVKHASLIVGHKGATISRIKSETSARINISNNIRGVPERIVYVRGTCDDVAKAYGMIVRALLEEHGNEDNGEDIEISINLLIPHHLMGCIIGKRGSRLREIEDLSAAKLFASPNQLLLSNDRILTINGVPDAIHIATFYISQTLLNFQMESPQKNVKRSIYYQPTQFNSVLIDHSQPNTIFHQRNHQYHPSDKLLSYKPNKNLPISSTLLSMATPQYTTASVANATAFQPNFVIPNVTVLDGPVISPAPGNHLLMNFVQQEIFIDEKFVGNVIGKDGKHINSVKESTGCSIIIQDPVEGSSERRLTIRGTFMASQAAIMLISNKIEIDRSNAERKRRSPL	85%
